Results published in patent US20190060480A1 (NATIONAL CANCER CENTER JAPAN, published 2019).
Numbering of substitutions follows the chain as printed.

T1: human transmembrane protein 180 (TMEM-180) (human, UniProt Q14CX5 1-517)
T1 construct: Membrane protein; also called TMET-180
T1 sequence: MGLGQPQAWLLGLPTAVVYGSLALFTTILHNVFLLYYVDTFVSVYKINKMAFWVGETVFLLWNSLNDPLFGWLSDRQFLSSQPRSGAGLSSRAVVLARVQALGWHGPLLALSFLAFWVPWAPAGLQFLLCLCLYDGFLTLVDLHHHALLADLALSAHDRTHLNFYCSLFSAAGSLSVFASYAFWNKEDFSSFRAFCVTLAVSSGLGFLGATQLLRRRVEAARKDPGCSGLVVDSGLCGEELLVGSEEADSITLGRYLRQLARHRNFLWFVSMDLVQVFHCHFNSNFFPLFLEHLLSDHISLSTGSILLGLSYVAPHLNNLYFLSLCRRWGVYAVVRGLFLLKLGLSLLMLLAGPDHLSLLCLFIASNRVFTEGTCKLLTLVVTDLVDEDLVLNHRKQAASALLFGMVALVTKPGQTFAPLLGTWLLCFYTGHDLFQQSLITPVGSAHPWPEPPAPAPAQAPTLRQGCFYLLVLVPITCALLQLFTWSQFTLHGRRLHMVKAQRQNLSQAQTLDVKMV

B1: rat IgM antibody clone 98 (antibody, V domains shown)
VH: QVQLKESGPGLVQPSQTLSLTCTVSGFSLTRYNVHWVRQPTGKGLEWMGVIWTGGSTDYNSALKSRLSISRDTSKSQVFLKMNSLQTEDIATYYCARDLGYWGQGVMVTVSS
VL: DIVMTQTPLSLSVAIGQSASISCKSSQSLKYRDGKTYLNWVFQSPGQSPKRLIYQVSKLDSGVPDRFSGTGSETDFTLKISRVEAEDLGVYYCCQGSYSPHTFGAGTKLELK
notes: Rat IgM from a hybridoma; also called 98 antibody; IgM 98
B2: anti-TMEM-180 antibody clone 1052 (antibody, V domains shown)
VH: QVQLKESGPGLMQPSETLSLTCTVSGFSLTSNGVGWVRQPLGKGLVWMGTIWTGGGTNYNSGVQSRLSISRDTSKSQVFLKMNSLQPEDTGTYYCAREYMGFDYWGQGVMVTVSS
VL: NTVMTQSPTSMFTSVGDRVTMSCKASQNVGINVGWYQQKTGQSPKRLIYWASNRDTGVPDRFTGSGSGTDFTLTISNMQAEDPAIYYCLQHNSYPRTFGGGTKLELK
notes: Rat IgM; also called 1052 antibody
B3: anti-TMEM-180 antibody clone 1105 (antibody, V domains shown)
VH: B2 VH with T53S, G62A, S70T, Y99E, M100K, D103A, V109T, M110L
VL: B2 VL with T2I, F12S, T97A, K107R
notes: Rat IgM; also called 1105 antibody
B4: rat IgM antibody clone 101 (antibody, V domains shown)
VH: QVQLKETGPGLVQPTQTLSITCTVSGFSLTSYYMQWVRQTPGKGLEWMGFIRSGGSTEYNSEFKSRLSISRDTSKNQVFLKMNSLKTEDTGVYYCARAFYGGYYFDYWGQGVMVTVSS
VL: DIVMTQSPTSISISVGERVTMNCKASQNVGSNVDWYQQKTGQSPKLLIYKASNRYTGVPDRFTGSGSGTDFTFTISNMQAEDLAVYYCMQSNTKYTFGAGTKLELK
notes: Rat IgM
B5: anti-TMEM-180 antibody clone 212 (antibody, V domains shown)
VH: EVQLVESGGGLVQPGNSLKLSCAASGFTFSDYAMAWVRQSPKKGLEWVATIIYDGSSTYYRDSVKGRFTISRDNAKSTLYLQMDSLRSEDTATYYCATHWYWYFDFWGPGTMVTVSS
VL: DIQMTQSPASLSASLGETVSIECLASEGISNDLAWYQQKSGKSPQLLIYAASRLQDGVPSRFSGSGSGTRYSLKISGMQPEDEADYFCQQSYKYPLTFGSGTKLEIK
notes: Rat IgM
B6: rat-human chimeric antibody clone 98 (antibody, IgG1, V domains shown)
VH: B1 VH
VL: B1 VL
notes: Clone 98 variable regions on human constant regions (IgG1), expressed in 293T cells; also called human chimeric IgG1 antibody; human chimeric IgG antibody

What was measured:
[1] = target: T1, human transmembrane protein 180 …; assay: flow cytometry on cancer cell lines, hybridoma supernatant
Description: The plate was centrifuged for 3 minutes at 440×g and 4° C. followed by removing the supernatant, adding antibody-producing hybridoma culture supernatant or antibody solution to the cell pellet at 50 μL/well and suspending therein. After allowing to react for 45 minutes on ice, the plate was washed three times with a mixture of 0.1% BSA, 2 mM EDTA and PBS at 200 μL/well. The supernatant was removed and secondary antibody was added to the cell pellet at 50 μL/well followed by suspending the cells therein. AlexaFluor 647 goat anti-rat IgG (H-L) (Life Technologies Corporation) was used for the secondary antibody after diluting 400-fold with a mixture of 0.1% BSA, 2 mM EDTA and PBS. After allowing to react for 45 minutes on ice, the plate was washed three times with a mixture of 0.1% BSA, 2 mM EDTA and PBS at 200 μL/well. After removing the supernatant, 50 ng/mL of propidium iodide, 0.1% BSA, 2 mM EDTA and PBS were added to the cell pellet at 250 μL/well followed by suspending therein. The cells stained in this manner were measured using a flow cytometer such as the Guava easyCyte 8HT (Merck Millipore Corporation) followed by analysis of the resulting data using FlowJO (Tomy Digital Biology Co., Ltd.). FACS analysis was carried out using colon cancer, brain tumor and hematologic cancer.
(§1) Flow cytometry was carried out in accordance with the procedure described in the above-mentioned section 3. […] The supernatant of a culture of hybridoma producing rat IgM antibody clone 365 was used as a negative control after similarly diluting to 1 μg/mL. […] A mixture of RPMI and 10% FBS was used to dilute each of the antibodies. Furthermore, antibody concentration in the hybridoma culture supernatant was measured by rat IgM-specific ELISA (Bethyl Laboratories).

[2] = target: T1, human transmembrane protein 180 …; assay: FACS on cancer-derived cell lines (Table 23)
[3] = target: T1, human transmembrane protein 180 …; assay: flow cytometry, DLD-1 parent line against TMEM-180 knockout line (considerable left shift in the knockout)
Description: After removing the supernatant, 50 ng/mL of propidium iodide, 0.1% BSA, 2 mM EDTA and PBS were added to the cell pellet at 250 μL/well followed by suspending therein. The cells stained in this manner were measured using a flow cytometer such as the Guava easyCyte 8HT (Merck Millipore Corporation) followed by analysis of the resulting data using FlowJO (Tomy Digital Biology Co., Ltd.). FACS analysis was carried out using colon cancer, brain tumor and hematologic cancer.
as §1

| Binder | binding result [1] | binding result [2] | also measured |
| --- | --- | --- | --- |
| B1 | binds | – | – |
| B2 | – | binds | – |
| B3 | – | binds | – |
| B4 | binds | – | – |
| B5 | binds | – | – |
| B6 | – | – | binding result [3]: binds |
